Measurements: paper PMC2933242

Biological target: T1, ERRα (estrogen-related receptor alpha) (UniProt P11474)
T1 sequence: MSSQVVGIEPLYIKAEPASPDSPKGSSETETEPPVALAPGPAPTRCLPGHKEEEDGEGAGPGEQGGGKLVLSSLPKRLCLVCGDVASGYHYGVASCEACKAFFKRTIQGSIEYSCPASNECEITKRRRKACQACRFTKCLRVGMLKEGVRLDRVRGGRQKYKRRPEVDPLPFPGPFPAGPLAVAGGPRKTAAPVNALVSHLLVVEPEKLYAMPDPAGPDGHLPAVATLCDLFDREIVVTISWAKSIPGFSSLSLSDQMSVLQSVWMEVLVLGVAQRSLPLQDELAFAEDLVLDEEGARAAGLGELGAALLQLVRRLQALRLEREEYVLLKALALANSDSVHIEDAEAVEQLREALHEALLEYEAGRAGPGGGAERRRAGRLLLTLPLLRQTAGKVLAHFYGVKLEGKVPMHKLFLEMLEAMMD
Test: competition
Conditions: 10-, 50-, EMSA with 15,000 cpm probe per reaction, buffer, salt, pH and temperature not given (as in ref 28)

Sequence	binding signal (fold IC50 (reference)) (unlabeled G vs 32P G probe, 100-fold excess)	binding signal (fold IC50 (A competitor / G competitor)) (vs 32P G probe, 100-fold excess of competitor)
GATCTAGCTCCTGCAGGTTCTCAAGGTTGTAGCCCGCACCCTGCTGATC (double strand) [PPARA -54,642 G probe (with -54,645 C)]	1	–
GATCTAGCTCCTGCAGGTTCTCAAGGTTGTAGTCCACACCCTGCTGATC (double strand) [PPARA -54,642 A probe (with -54,645 T)]	–	2.3
